# Experimental data reported in patent US9707281B2, “Pharmaceutical compositions and methods for digesting atherosclerotic plaques” (Northwestern University, priority 2010, dated 2017).
# B1: tPA: tissue plasminogen activator (protein, UniProt P00750 36-562, looked up)
# Tissue-type plasminogen …: SYQVICRDEKTQMIYQQHQSWLRPVLRSNRVEYCWCNSGRAQCHSVPVKSCSEPRCFNGGTCQQALYFSDFVCQCPEGFAGKCCEIDTRATCYEDQGISYRGTWSTAESGAECTNWNSSALAQKPYSGRRPDAIRLGLGNHNYCRNPDRDSKPWCYVFKAGKYSSEFCSTPACSEGNSDCYFGNGSAYRGTHSLTESGASCLPWNSMILIGKVYTAQNPSAQALGLGKHNYCRNPDGDAKPWCHVLKNRRLTWEYCDVPSCSTCGLRQYSQPQFRIKGGLFADIASHPWQAAIFAKHRRSPGERFLCGGILISSCWILSAAHCFQERFPPHHLTVILGRTYRVVPGEEEQKFEVEKYIVHKEFDDDTYDNDIALLQLKSDSSRCAQESSVVRTVCLPPADLQLPDWTECELSGYGKHEALSPFYSERLKEAHVRLYPSSRCTSQHLLNRTVTDNMLCAGDTRSGGPQANLHDACQGDSGGPLVCLNDGRMTLVGIISWGLGCGQKDVPGVYTKVTNYLDWIRDNMRP
# System: Human arterial plaque samples
# Assay: in vitro dissolution and digestion of atherosclerotic plaque specimens (percent reduction of plaque weight)
# Settings: EDTA 0.5-2 mg/ml, β-cyclodextrin 1-100 mMol, tPA 0.5-2 mg/ml, p<0.05
# Method: Atherosclerotic plaques from surgical endarterectomies were obtained from various anatomic sites. All experiments were performed by cutting a given plaque into equal parts by weight then exposing them to various agents alone and in combination to determine the most optimal digestion solution. The optimal concentration and conditions for plaque dissolution and digestion were determined for ethylenediaminetetraacetic acid (EDTA), β-cyclodextrin, tPA, collagenase type I, III, IV, and V. Weights of each specimen were obtained prior to exposure of each solution and at different time points to determine percent of digested versus undigested plaque. Additional variables that were assessed and optimized include: 1) different combinations of EDTA, β-cyclodextrin, and the collagenases, 2) temperature, 3) pH, and 4) agitation.
# Atherosclerotic plaques were obtained from patients undergoing endarterectomies. The optimal concentration and conditions for plaque dissolution and digestion were determined for ethylenediaminetetraacetic acid (EDTA), β-cyclodextrin, and collagenase type I, III, IV, and V. Variables that were assessed included: 1) combination of different agents, 2) time, 3) temperature, 4) pH, and 5) agitation. Weight of each specimen was measured at different time points to determine percent of undigested plaque. […]
molecule,measurement,value
B1,"reduction in plaque weight, agent alone",20%
